The nature of the data set: CD spectra analysis of ß-sheet conformation. Type of data set: physicochemical. Conditions: 62.5 µM in sodium carbonate (0.05 mM)/ SDS (37.5 mM) buffer, 20°C, instantly after resuspending in buffer. On the procedure: To compare the ß-sheets formed by the wild type and the mutated trimer, respectively, CD spectra analysis was performed. Both peptides were measured at a concentration of 62.5 µM in sodium carbonate (0.05 mM)/ SDS (37.5 mM) buffer with a JASCO J-810 spectroplarimeter (JASCO, Easton, MD, USA). Far-UV CD spectra (190-260 nm) were recorded at 20°C using a quartz cuvette with an optical path length of 1 mm. The scanning speed was set at 20 nm/min with a response time 4 second and bandwidth 2 nm.

“wild type Aβ: wild type Aβ peptide compared with mutated Aβ (1-40; G29Ile,G33Ile) in CD spectra; length not stated” registered a ß-sheet of 1%.
